Data published in the supplement of paper PMC10065799, “High-throughput profiling of sequence recognition by tyrosine kinases and SH2 domains using bacterial peptide display” (eLife, 2023).

Key:
AncSZ = test: phosphorylation enrichment, bacterial display (enrichment ratio); higher = better substrate or ligand; peptides without Tyr show the background
EPHB1 = EPHB1 (UniProt P54762); test: as above
EPHB2 = EPHB2 (UniProt P29323); test: as above
FGFR1 = FGFR1 (UniProt P11362); test: as above
FGFR3 = FGFR3 (UniProt P22607); test: as above
Fer (mouse) = test: as above
Fes = Fes (UniProt P07332); test: as above
Fyn = Fyn (UniProt P06241); test: as above
Hck = Hck (UniProt P08631); test: as above
Jak2 = Jak2 (UniProt O60674); test: as above
MERTK = MERTK (UniProt Q12866); test: as above
c-Abl (mouse) = test: as above
c-Src = test: as above
Grb2 SH2 = Grb2 SH2 (UniProt P62993); test: SH2 binding enrichment of the phosphorylated peptide, bacterial display (enrichment ratio); higher = better substrate or ligand; peptides without Tyr show the background
SHP2-C SH2 = test: as above
c-Src SH2 = test: as above
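Wherever SH2 binding enrichment of the phosphorylated peptide, bacterial display is given: peptide library displayed on the E. coli surface as eCPX fusions, selected cells deep-sequenced, score is each peptide's frequency after selection divided by its frequency in the input.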
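Wherever phosphorylation enrichment, bacterial display is given: 11-residue human phosphosite peptides and single-mutation variants displayed on the E. coli surface, counted by deep sequencing, each peptide's frequency after selection divided by its frequency in the unselected input library; frequency after pTyr selection over input frequency; kinase dosed for 20-30% of maximal phosphorylation in three min.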

Sequence of FGFR3 (P22607 whole entry, looked up): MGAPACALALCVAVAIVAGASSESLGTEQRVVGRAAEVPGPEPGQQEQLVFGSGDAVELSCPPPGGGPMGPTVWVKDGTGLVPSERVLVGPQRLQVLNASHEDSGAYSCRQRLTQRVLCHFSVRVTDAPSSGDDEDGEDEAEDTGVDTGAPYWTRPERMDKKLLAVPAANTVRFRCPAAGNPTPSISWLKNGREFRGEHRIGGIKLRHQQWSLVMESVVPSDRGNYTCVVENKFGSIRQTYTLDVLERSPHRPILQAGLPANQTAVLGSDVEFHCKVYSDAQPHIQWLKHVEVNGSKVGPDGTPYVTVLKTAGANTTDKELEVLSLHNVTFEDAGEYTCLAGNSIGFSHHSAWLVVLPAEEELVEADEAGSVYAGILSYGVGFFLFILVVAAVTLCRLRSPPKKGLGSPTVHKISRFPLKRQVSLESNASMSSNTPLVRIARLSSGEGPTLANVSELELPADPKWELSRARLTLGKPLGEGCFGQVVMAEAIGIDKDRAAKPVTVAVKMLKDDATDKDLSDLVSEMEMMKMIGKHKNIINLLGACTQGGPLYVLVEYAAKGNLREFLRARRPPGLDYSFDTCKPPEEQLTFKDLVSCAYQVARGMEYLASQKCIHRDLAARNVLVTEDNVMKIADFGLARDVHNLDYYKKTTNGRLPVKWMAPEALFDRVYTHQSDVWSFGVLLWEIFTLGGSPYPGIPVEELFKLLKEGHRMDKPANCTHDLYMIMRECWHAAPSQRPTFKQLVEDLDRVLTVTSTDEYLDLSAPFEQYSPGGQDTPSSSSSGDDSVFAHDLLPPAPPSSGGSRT
Sequence of EPHB1 (P54762 whole entry, looked up): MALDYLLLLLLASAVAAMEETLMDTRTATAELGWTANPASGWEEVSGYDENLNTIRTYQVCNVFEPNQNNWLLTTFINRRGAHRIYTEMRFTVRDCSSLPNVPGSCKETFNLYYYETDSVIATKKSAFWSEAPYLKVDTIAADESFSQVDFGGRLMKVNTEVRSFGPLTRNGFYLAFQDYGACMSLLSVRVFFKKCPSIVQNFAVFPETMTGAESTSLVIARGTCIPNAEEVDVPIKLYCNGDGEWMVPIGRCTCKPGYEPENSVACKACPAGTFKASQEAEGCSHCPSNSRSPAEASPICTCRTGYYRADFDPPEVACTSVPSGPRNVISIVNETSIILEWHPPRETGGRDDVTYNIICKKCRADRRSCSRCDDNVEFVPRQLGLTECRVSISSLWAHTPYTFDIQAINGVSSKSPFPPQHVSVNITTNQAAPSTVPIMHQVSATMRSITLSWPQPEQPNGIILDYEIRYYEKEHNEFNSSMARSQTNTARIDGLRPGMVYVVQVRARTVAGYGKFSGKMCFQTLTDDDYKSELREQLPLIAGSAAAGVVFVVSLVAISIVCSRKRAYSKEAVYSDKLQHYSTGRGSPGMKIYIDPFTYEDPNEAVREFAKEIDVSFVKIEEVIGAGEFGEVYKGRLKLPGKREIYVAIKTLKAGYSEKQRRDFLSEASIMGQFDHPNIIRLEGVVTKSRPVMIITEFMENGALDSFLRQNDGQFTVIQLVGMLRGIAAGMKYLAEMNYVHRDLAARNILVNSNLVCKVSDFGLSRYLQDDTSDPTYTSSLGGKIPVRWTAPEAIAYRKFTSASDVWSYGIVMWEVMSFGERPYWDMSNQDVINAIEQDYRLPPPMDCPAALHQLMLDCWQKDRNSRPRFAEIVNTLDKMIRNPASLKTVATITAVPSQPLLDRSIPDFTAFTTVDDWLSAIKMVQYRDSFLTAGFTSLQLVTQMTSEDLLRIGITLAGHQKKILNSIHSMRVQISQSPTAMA
Sequence of Hck (P08631 whole entry, looked up): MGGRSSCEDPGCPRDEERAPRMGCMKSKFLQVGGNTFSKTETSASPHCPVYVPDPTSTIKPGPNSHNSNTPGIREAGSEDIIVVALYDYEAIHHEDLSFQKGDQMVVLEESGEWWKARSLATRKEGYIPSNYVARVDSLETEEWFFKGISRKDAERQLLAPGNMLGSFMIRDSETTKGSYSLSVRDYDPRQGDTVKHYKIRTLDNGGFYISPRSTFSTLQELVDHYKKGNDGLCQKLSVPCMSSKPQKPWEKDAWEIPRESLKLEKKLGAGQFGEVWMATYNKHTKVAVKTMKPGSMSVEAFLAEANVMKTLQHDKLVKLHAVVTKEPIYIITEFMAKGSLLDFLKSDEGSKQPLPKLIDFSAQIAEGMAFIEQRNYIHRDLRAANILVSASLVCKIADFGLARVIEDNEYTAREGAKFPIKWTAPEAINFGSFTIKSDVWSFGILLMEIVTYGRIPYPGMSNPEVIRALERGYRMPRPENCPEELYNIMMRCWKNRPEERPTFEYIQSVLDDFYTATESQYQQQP
Sequence of Fes (P07332 whole entry, looked up): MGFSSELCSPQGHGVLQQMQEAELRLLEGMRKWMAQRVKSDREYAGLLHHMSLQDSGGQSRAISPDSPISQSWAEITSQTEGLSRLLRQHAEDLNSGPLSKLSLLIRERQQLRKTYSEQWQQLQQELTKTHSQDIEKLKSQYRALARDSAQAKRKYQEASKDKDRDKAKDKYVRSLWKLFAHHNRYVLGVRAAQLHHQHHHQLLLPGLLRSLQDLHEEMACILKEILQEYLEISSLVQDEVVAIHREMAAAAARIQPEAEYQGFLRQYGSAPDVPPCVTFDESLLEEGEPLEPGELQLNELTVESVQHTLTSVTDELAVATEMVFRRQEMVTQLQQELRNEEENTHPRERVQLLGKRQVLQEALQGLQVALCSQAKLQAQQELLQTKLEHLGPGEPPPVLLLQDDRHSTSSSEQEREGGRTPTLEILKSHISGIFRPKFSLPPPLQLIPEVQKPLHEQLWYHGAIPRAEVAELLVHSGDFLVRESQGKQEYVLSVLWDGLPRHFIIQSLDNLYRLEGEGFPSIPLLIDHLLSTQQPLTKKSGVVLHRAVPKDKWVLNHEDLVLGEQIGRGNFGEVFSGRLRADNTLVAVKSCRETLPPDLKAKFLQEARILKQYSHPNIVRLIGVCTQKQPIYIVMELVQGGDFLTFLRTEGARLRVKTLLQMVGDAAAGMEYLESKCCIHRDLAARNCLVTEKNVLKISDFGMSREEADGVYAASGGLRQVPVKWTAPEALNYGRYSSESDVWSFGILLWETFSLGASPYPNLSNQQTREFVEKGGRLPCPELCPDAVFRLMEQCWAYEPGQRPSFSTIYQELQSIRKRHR
Sequence of Fyn (P06241 whole entry, looked up): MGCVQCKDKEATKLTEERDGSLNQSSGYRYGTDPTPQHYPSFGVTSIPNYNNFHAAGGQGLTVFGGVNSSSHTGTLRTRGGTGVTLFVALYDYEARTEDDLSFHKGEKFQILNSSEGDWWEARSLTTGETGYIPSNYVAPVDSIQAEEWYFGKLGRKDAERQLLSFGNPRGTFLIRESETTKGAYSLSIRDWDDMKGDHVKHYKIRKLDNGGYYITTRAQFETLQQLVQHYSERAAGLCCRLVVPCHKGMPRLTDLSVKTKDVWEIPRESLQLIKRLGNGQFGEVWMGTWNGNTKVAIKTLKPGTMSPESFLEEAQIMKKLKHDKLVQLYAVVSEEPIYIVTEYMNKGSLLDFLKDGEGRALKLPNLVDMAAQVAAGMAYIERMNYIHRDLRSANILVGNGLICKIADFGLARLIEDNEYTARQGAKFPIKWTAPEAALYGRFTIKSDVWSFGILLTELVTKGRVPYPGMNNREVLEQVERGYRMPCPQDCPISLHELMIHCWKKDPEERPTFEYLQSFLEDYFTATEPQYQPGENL
Sequence of EPHB2 (P29323 whole entry, looked up): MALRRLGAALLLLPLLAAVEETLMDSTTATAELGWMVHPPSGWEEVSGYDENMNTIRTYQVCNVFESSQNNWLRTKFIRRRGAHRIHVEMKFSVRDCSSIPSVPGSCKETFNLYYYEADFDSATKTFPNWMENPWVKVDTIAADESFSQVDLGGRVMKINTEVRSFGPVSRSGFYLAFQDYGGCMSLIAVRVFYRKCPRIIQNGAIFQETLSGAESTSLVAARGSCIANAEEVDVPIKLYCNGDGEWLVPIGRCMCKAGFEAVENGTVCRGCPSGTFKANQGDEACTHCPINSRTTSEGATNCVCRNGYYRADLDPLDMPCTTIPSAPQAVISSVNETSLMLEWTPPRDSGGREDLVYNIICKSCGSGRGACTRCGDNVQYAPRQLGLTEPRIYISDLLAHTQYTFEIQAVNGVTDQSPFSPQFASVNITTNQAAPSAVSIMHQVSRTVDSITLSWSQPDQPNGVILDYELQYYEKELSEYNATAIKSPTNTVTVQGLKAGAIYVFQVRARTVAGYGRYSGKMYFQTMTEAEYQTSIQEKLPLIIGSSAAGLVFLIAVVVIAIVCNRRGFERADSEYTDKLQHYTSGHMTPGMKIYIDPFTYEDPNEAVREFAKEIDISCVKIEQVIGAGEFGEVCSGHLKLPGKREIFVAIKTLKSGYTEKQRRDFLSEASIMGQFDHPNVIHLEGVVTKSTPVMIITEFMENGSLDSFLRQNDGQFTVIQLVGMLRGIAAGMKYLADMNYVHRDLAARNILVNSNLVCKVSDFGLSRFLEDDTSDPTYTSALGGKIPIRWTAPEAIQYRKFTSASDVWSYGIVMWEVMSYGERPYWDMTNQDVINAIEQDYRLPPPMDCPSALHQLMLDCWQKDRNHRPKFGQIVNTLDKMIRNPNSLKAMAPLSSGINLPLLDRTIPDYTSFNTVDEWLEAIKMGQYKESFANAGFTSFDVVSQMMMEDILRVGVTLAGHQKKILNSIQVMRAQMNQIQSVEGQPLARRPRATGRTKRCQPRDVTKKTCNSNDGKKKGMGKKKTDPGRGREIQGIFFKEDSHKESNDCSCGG
Sequence of Grb2 SH2 (P62993 whole entry, looked up): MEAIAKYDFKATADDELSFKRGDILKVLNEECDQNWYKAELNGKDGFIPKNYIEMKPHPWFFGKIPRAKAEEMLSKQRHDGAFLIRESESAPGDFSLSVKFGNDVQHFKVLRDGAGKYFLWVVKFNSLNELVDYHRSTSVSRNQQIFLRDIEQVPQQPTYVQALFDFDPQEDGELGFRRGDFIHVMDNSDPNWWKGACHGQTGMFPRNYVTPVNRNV

Sequence | phosphorylation enrichment (AncSZ) | phosphorylation enrichment (EPHB1) | phosphorylation enrichment (EPHB2) | phosphorylation enrichment (FGFR1) | phosphorylation enrichment (FGFR3) | phosphorylation enrichment (Fer (mouse)) | phosphorylation enrichment (Fes) | phosphorylation enrichment (Fyn) | phosphorylation enrichment (Hck) | phosphorylation enrichment (Jak2) | phosphorylation enrichment (MERTK) | phosphorylation enrichment (c-Abl (mouse)) | phosphorylation enrichment (c-Src) | SH2 binding enrichment (Grb2 SH2) | SH2 binding enrichment (SHP2-C SH2) | SH2 binding enrichment (c-Src SH2)
SSVKPYRVFCD [FGB_Y266_YF] | 0.701 | 0.432 | 0.394 | 0.453 | 0.552 | 0.34 | 0.74 | 0.419 | 0.432 | 0.678 | 0.392 | 0.7 | 0.481 | 1.11 | 1.08 | 0.758
IGEGTYRQVYK [CDK13_Y716_G717R] | 0.492 | 0.289 | 0.465 | 0.42 | 0.391 | 0.449 | 0.546 | 0.368 | 0.411 | 0.655 | 0.319 | 0.492 | 0.521 | 0.874 | 0.89 | 0.589
YYLGKYLQEVL [KLB_Y910] | 1.2 | 0.506 | 0.593 | 3.66 | 2.92 | 0.523 | 1.34 | 0.568 | 0.565 | 1.3 | 1.42 | 0.902 | 0.523 | 0.877 | 0.66 | 0.686
QEIATCRRLLE [KRT14_Y415_Y415C] | 0.896 | 0.412 | 0.502 | 0.634 | 0.508 | 0.337 | 0.928 | 0.352 | 0.635 | 0.643 | 0.407 | 0.641 | 0.372 | 0.908 | 0.469 | 0.704
VQDPAYLRDIN [OPRK1_Y369_D374N] | 0.828 | 0.608 | 0.485 | 0.415 | 0.623 | 0.46 | 0.974 | 0.467 | 0.442 | 0.766 | 0.333 | 0.604 | 0.488 | 0.75 | 0.555 | 0.454
TAALWYIYSHT [ENG_Y612] | 1.15 | 0.794 | 0.832 | 0.497 | 0.689 | 0.586 | 1.14 | 1.52 | 1.3 | 0.984 | 0.878 | 0.748 | 1.82 | 0.781 | 0.918 | 0.6
KLPYLYDDPFS [GPX2_Y127_P126L] | 1.22 | 3.22 | 4.17 | 0.489 | 0.689 | 1.28 | 1.3 | 0.695 | 1.46 | 0.997 | 2.58 | 1.12 | 0.906 | 0.765 | 0.797 | 2.42
KDHPDYEYQPR [SOX9_Y172_K173E] | 2.59 | 2.21 | 0.958 | 0.844 | 0.771 | 0.465 | 0.961 | 0.667 | 0.588 | 0.811 | 0.432 | 0.665 | 0.474 | 1.19 | 0.689 | 0.586
PIYEGYALPHA [ACTA1_Y171] | 2.11 | 27.2 | 35.7 | 1.01 | 0.995 | 26.2 | 3.4 | 19.8 | 17.3 | 1.4 | 18.1 | 31.3 | 14.8 | 0.72 | 0.617 | 2.12
SRVTQYERNFE [SNX1_Y463_D466N] | 0.763 | 0.421 | 0.387 | 0.453 | 0.499 | 0.438 | 0.813 | 0.45 | 0.435 | 0.662 | 0.379 | 0.634 | 0.377 | 0.845 | 0.593 | 0.569
ERKQTYGSCRK [LACTB_Y473] | 0.518 | 0.343 | 0.406 | 0.365 | 0.381 | 0.319 | 0.636 | 0.339 | 0.403 | 0.392 | 0.359 | 0.5 | 0.334 | 1.09 | 1.27 | 0.971
EQWRAYLEGTC [HLA-C_Y183_L180W] | 1.2 | 0.648 | 0.588 | 0.65 | 0.951 | 0.636 | 1.23 | 0.527 | 0.507 | 1.17 | 0.437 | 0.845 | 0.398 | 0.749 | 0.718 | 0.466
WDLSEYSYKDP [ITGA3_Y237] | 1.85 | 0.424 | 0.568 | 0.513 | 0.631 | 0.449 | 0.998 | 0.914 | 0.673 | 0.997 | 0.416 | 0.614 | 0.916 | 0.932 | 0.704 | 0.878
IYLGAYDRFLP [SLC22A5_Y486_V481I] | 1.72 | 2.18 | 4.21 | 0.918 | 0.94 | 2.42 | 1.18 | 5 | 6.82 | 1.16 | 6.6 | 2.56 | 5.43 | 0.979 | 2.29 | 0.726
YSGIYYKPESL [L2HGDH_Y103_H98Y] | 2.36 | 9.38 | 12.4 | 11 | 9.82 | 9.95 | 0.968 | 9.17 | 8.46 | 6.33 | 10.9 | 29.5 | 6.07 | 0.831 | 10.5 | 6.04
PQEVTYAQLDH [KIR3DL2_Y398] | 2.44 | 1.3 | 1.33 | 3.41 | 2.12 | 3.3 | 2.64 | 9.11 | 10.7 | 2.87 | 3.38 | 4.39 | 13.6 | 0.873 | 8.91 | 1.25
PFSNSYENSLI [EPOR_Y489_P488S_YF] | 1.4 | 1.15 | 0.498 | 0.577 | 1.51 | 0.809 | 1.21 | 0.727 | 0.78 | 1.16 | 0.402 | 0.877 | 0.862 | 29.8 | 1.13 | 5.68

Sequence | phosphorylation enrichment (AncSZ) | phosphorylation enrichment (EPHB1) | phosphorylation enrichment (EPHB2) | phosphorylation enrichment (FGFR1) | phosphorylation enrichment (FGFR3) | phosphorylation enrichment (Fer (mouse)) | phosphorylation enrichment (Fes) | phosphorylation enrichment (Fyn) | phosphorylation enrichment (Hck) | phosphorylation enrichment (Jak2) | phosphorylation enrichment (MERTK) | phosphorylation enrichment (c-Abl (mouse)) | phosphorylation enrichment (c-Src) | SH2 binding enrichment (Grb2 SH2) | SH2 binding enrichment (SHP2-C SH2) | SH2 binding enrichment (c-Src SH2)
QEIATYRRQLE [KRT14_Y415_L418Q] | 1.11 | 0.75 | 1.27 | 0.65 | 0.808 | 0.601 | 1.01 | 0.83 | 0.559 | 0.976 | 0.445 | 0.773 | 0.583 | 0.768 | 0.332 | 0.593
RQAQAYRGQRV [TSHR_Y706] | 1.82 | 0.564 | 0.99 | 1.23 | 1 | 0.909 | 1.51 | 1 | 0.839 | 1.62 | 0.831 | 1.25 | 1.36 | 0.691 | 0.665 | 0.385
KELALYDENWF [RPS19_Y48_P47L] | 1.5 | 8.19 | 11.5 | 0.729 | 0.947 | 7.67 | 1.43 | 1.02 | 1.41 | 1.44 | 7.19 | 1.06 | 1.39 | 0.834 | 0.611 | 0.456
ILGRYYETSSI [PAX2_Y73_G76S] | 0.724 | 0.527 | 0.476 | 0.86 | 0.802 | 0.629 | 0.705 | 0.547 | 0.524 | 0.632 | 0.594 | 0.55 | 0.466 | 0.782 | 1.02 | 2.39
IENKLYGMSDP [RET_Y1062] | 0.941 | 0.506 | 0.653 | 0.585 | 0.689 | 0.666 | 0.988 | 0.613 | 0.732 | 0.617 | 0.546 | 0.707 | 0.698 | 0.811 | 0.521 | 0.533
LNCIFYKDQTG [RS1_Y166_W163C_YF] | 1.56 | 1.1 | 1.34 | 0.563 | 1.06 | 1.44 | 2.08 | 0.552 | 0.774 | 2.06 | 0.798 | 1.24 | 1.31 | 0.75 | 0.659 | 0.502
YRNKPYISWPS [CDC42BPB_Y1638_S1633Y] | 0.547 | 0.45 | 0.461 | 0.394 | 0.46 | 0.394 | 0.635 | 0.41 | 0.606 | 0.697 | 0.449 | 0.401 | 0.522 | 1.87 | 1.64 | 1.29
TVNIRYLLFPS [SERAC1_Y548_S543T] | 1.21 | 0.728 | 0.725 | 0.578 | 0.829 | 0.564 | 1.21 | 0.577 | 0.574 | 1.11 | 0.606 | 0.716 | 0.434 | 1.9 | 1.46 | 1.26
LRLFSYSTTIR [CYP7B1_Y365_S363F] | 0.815 | 0.654 | 0.45 | 0.357 | 0.773 | 0.457 | 1.09 | 0.421 | 0.57 | 1 | 0.35 | 0.663 | 0.358 | 0.983 | 0.871 | 0.494
SVTCTYSPALN [TP53_Y126] | 1.53 | 0.794 | 0.723 | 0.517 | 0.984 | 0.626 | 1.72 | 0.489 | 0.641 | 1.45 | 0.456 | 0.976 | 0.66 | 0.766 | 0.616 | 0.401
HEKRAYICAHP [ACAD9_Y611_L606H] | 0.742 | 0.454 | 0.434 | 0.543 | 0.548 | 0.593 | 0.77 | 0.447 | 0.49 | 1.3 | 0.439 | 0.59 | 0.448 | 0.96 | 0.962 | 0.969
QKFMAYLSQGG [HLCS_Y236] | 0.839 | 0.731 | 0.803 | 0.466 | 0.64 | 0.487 | 0.745 | 1.2 | 0.738 | 0.945 | 0.517 | 0.446 | 0.542 | 1.23 | 1.17 | 0.877
GNEEAYGSSHI [FAM171B_Y522_R524S] | 0.763 | 0.465 | 0.525 | 0.48 | 0.518 | 0.4 | 0.817 | 0.521 | 0.489 | 0.718 | 0.526 | 0.866 | 0.549 | 0.663 | 0.751 | 0.435
HITQVYGFFDE [PPP2CA_Y127_Q122H_YF] | 2.03 | 1.09 | 1.11 | 1.32 | 1.16 | 0.823 | 2.38 | 15.7 | 7.13 | 1.95 | 2.8 | 1.69 | 12.7 | 1.56 | 1.12 | 0.838
ADVLDYIKALN [HPRT1_Y81_L78V] | 0.756 | 0.459 | 0.534 | 0.532 | 0.629 | 0.415 | 0.814 | 0.507 | 0.489 | 0.748 | 0.542 | 0.467 | 0.463 | 0.76 | 0.869 | 0.553
EACPSYSHVVL [CHST6_Y168_R166P] | 0.7 | 0.492 | 0.521 | 0.538 | 0.51 | 6 | 0.702 | 0.411 | 0.463 | 0.527 | 0.486 | 0.54 | 0.507 | 1 | 1.75 | 1.52
